Measurements: the RNAGym collection of RNA variant scans (doi:10.1093/nar/gkz1192)

B1: CPEB3 Ribozyme (parent)
chain: UAACAGGGGGCCACAGCAGAAGCGUUCACGUCGCAGCCCCUGUCAGAUUCUGGUGAAUCUGCGAAUUCUGCUGUAUAUCUC

Variants of: B1
Assay: self-cleavage, relative activity (ratio to wild type); higher = more cleavage; in vitro, sequencing
Summary of the method: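 After error-prone PCR and barcoding, CPEB3 ribozyme mutant libraries were transcribed with T7 RNA polymerase at 37°C for 5 hours, then given 15 min with DNase I before an EDTA stop, and they cleaved during both steps. Reverse transcription with template switching preceded Illumina sequencing. Relative activity divides a variant's cleaved/total read fraction by the unmutated ribozyme's. At least 5 reads were required per variant, and three batches were averaged.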

First: U25C A28C
Second: U25C A28U
The self-cleavage of the first is lower: 0.15 for the first, 0.25 for the second.

Compared with U25C A28G, U25A A35G is higher in self-cleavage: 0.28 for the first, 0.31 for the second.

Going from U25A A35U to U25A A35C, the self-cleavage falls from 0.29 to 0.2.

Going from U25A U69C to U25A U69A, the self-cleavage rises from 0.25 to 0.27.

Compared with U25A A77G, U25A A77U is higher in self-cleavage: 0.18 for the first, 0.23 for the second.

First: U25A A77C
Second: G24U U76A
The self-cleavage of the first is lower: 0.19 for the first, 0.4 for the second.

First: G24U A28G
Second: U25G C71G
The self-cleavage of the first is higher: 0.17 for the first, 0.16 for the second.

First: U25C A56C
Second: U25C A56U
The self-cleavage of the first is higher: 0.25 for the first, 0.24 for the second.

Going from U25C A56G to U25G G73A, the self-cleavage rises from 0.25 to 0.51.

Compared with U25C A45C, U25C A45U is higher in self-cleavage: 0.18 for the first, 0.28 for the second.

Going from U25C A45G to U25A C27U, the self-cleavage falls from 0.26 to 0.15.

First: G24U U25A
Second: U25C G70C
The self-cleavage of the first is higher: 0.3 for the first, 0.11 for the second.

First: U25C G70A
Second: U25A G61U
The self-cleavage of the first is higher: 0.3 for the first, 0.18 for the second.

Compared with U25A G61A, U25A U48C is higher in self-cleavage: 0.23 for the first, 0.3 for the second.

Compared with U25A U48A, U25A C44A is lower in self-cleavage: 0.32 for the first, 0.17 for the second.

Going from U25G A56G to G24U U41A, the self-cleavage falls from 0.4 to 0.23.

Going from U25C U31A to U25C U31G, the self-cleavage falls from 0.25 to 0.23.

Going from U25C U31C to G24U U80C, the self-cleavage rises from 0.23 to 0.41.

First: G24U U80A
Second: U25A U74A
The self-cleavage of the first is lower: 0.22 for the first, 0.25 for the second.

First: U25A U74C
Second: U25C G30U
The self-cleavage of the first is higher: 0.33 for the first, 0.16 for the second.

First: U25C G30A
Second: U25C G30C
The self-cleavage of the first is higher: 0.33 for the first, 0.26 for the second.

First: U25A C68A
Second: U25C C34U
The self-cleavage of the first is lower: 0.19 for the first, 0.25 for the second.

First: U25C C34G
Second: U25A U49C
The self-cleavage of the first is higher: 0.27 for the first, 0.22 for the second.

U25A U49G and U25A U49A are the same in self-cleavage: 0.19 for the first, 0.19 for the second.

First: U25A A65C
Second: U25A A65G
The self-cleavage of the first is lower: 0.08 for the first, 0.28 for the second.

Compared with U25A G46A, G24C U58C is higher in self-cleavage: 0.15 for the first, 0.2 for the second.

First: U25C U69G
Second: U25C U69C
The self-cleavage of the first is lower: 0.21 for the first, 0.22 for the second.

Compared with U25C U69A, U25C G73U is higher in self-cleavage: 0.22 for the first, 0.43 for the second.

First: G24U A47G
Second: U25A U80C
The self-cleavage of the first is lower: 0.31 for the first, 0.33 for the second.

First: U25A U80G
Second: U25A U80A
The self-cleavage of the first is lower: 0.22 for the first, 0.45 for the second.

First: G24C U80C
Second: U25C C44U
The self-cleavage of the first is higher: 0.36 for the first, 0.23 for the second.

Compared with U25A A45G, U25A A45U is lower in self-cleavage: 0.27 for the first, 0.19 for the second.

First: U25A A45C
Second: U25C C62U
The self-cleavage of the first is higher: 0.6 for the first, 0.11 for the second.

First: U25C C62G
Second: G24U U67C
The self-cleavage of the first is higher: 0.18 for the first, 0.1 for the second.

Compared with G24U U67A, U25G C50U is lower in self-cleavage: 0.16 for the first, 0.14 for the second.

Going from U25C C27A to U25C C27U, the self-cleavage falls from 0.41 to 0.36.

Going from U25G A47U to U25C C39A, the self-cleavage falls from 0.32 to 0.23.

Going from U25C C39G to U25C C39U, the self-cleavage rises from 0.15 to 0.2.

First: U25C U26G
Second: U25C U26C
The self-cleavage of the first is higher: 0.31 for the first, 0.27 for the second.

Going from U25C U26A to U25C U43A, the self-cleavage rises from 0.28 to 0.34.

Compared with U25C U43C, U25C U43G is higher in self-cleavage: 0.3 for the first, 0.35 for the second.

Going from U25A G30A to U25A G30C, the self-cleavage rises from 0.13 to 0.26.

First: G24U A35U
Second: G24U A35G
The self-cleavage of the first is lower: 0.19 for the first, 0.9 for the second.

Going from U25A to U25G, the self-cleavage rises from 0.3 to 0.31.

First: U25C
Second: U25G A57G
The self-cleavage of the first is higher: 0.29 for the first, 0.16 for the second.

First: U25A C32U
Second: U25A C32A
The self-cleavage of the first is higher: 0.38 for the first, 0.16 for the second.

First: U25A C40A
Second: U25C C50G
The self-cleavage of the first is lower: 0.22 for the first, 0.37 for the second.

First: U25C C50A
Second: U25C C50U
The self-cleavage of the first is lower: 0.09 for the first, 0.27 for the second.

Compared with U25A A75U, U25A A75G is lower in self-cleavage: 0.32 for the first, 0.23 for the second.

Compared with U25A U43C, U25A U43A is lower in self-cleavage: 0.28 for the first, 0.21 for the second.

Compared with U25A A28G, U25A A28U is higher in self-cleavage: 0.28 for the first, 0.52 for the second.

First: U25A A28C
Second: G24C U60A
The self-cleavage of the first is lower: 0.39 for the first, 0.45 for the second.

First: G24C U51A
Second: G24C U51C
The self-cleavage of the first is lower: 0.3 for the first, 0.32 for the second.

First: U25G A77U
Second: U25C A35G
The self-cleavage of the first is lower: 0.25 for the first, 0.31 for the second.

Compared with U25C A35U, U25A G33C is lower in self-cleavage: 0.24 for the first, 0.19 for the second.

Compared with G24U A77U, U25A A64G is higher in self-cleavage: 0.15 for the first, 0.33 for the second.

Going from U25A A64U to U25C U48G, the self-cleavage rises from 0.19 to 0.39.

Going from U25C U48C to U25C U48A, the self-cleavage rises from 0.26 to 0.31.

Going from U25A C59U to U25C A77U, the self-cleavage rises from 0.09 to 0.26.

First: U25C A77C
Second: U25C A77G
The self-cleavage of the first is higher: 0.3 for the first, 0.27 for the second.

U25A A56U and U25A A56G are the same in self-cleavage: 0.27 for the first, 0.27 for the second.

First: U25C G55U
Second: U25C G55A
The self-cleavage of the first is lower: 0.21 for the first, 0.28 for the second.

Compared with U25C G55C, G24U is lower in self-cleavage: 0.33 for the first, 0.3 for the second.

Going from U25C C29U to U25C C29G, the self-cleavage falls from 0.47 to 0.24.

First: U25C C29A
Second: G24U C44A
The self-cleavage of the first is higher: 0.3 for the first, 0.18 for the second.

Going from G24C U72G to G24C U72A, the self-cleavage falls from 0.2 to 0.19.

First: G24C U72C
Second: U25G C39U
The self-cleavage of the first is lower: 0.15 for the first, 0.3 for the second.

Going from U25A G42A to U25A G42U, the self-cleavage rises from 0.2 to 0.28.

Compared with U25A U58G, U25A U58C is higher in self-cleavage: 0.1 for the first, 0.29 for the second.

Compared with U25A U58A, U25G G52A is lower in self-cleavage: 0.27 for the first, 0.15 for the second.

Going from U25C C59A to U25C C59U, the self-cleavage rises from 0.16 to 0.28.

Compared with G24C U31G, G24C U31A is lower in self-cleavage: 0.34 for the first, 0.19 for the second.

Going from G24C U31C to G24C G73A, the self-cleavage rises from 0.1 to 0.16.

Going from G24C U54C to G24C U54A, the self-cleavage falls from 0.14 to 0.13.

Going from G24U A64G to G24U A64U, the self-cleavage rises from 0.18 to 0.3.

Going from U25A U67A to U25A U67C, the self-cleavage falls from 0.46 to 0.19.

Going from U25A C29U to U25A C29G, the self-cleavage rises from 0.22 to 0.25.

Going from U25C G33A to U25C G33U, the self-cleavage falls from 0.25 to 0.15.

Going from U25C G33C to U25C U60G, the self-cleavage falls from 0.16 to 0.13.

Compared with U25C U60C, U25C U60A is higher in self-cleavage: 0.23 for the first, 0.24 for the second.

Compared with U25C C81G, U25C C81U is lower in self-cleavage: 0.22 for the first, 0.15 for the second.

Going from U25C C81A to U25C U74C, the self-cleavage rises from 0.23 to 0.35.

Compared with U25C U74A, U25C G42U is higher in self-cleavage: 0.42 for the first, 0.5 for the second.

In the case of U25C G42C, the self-cleavage is reported as 0.33.
